Earlier results in paper PMC5457079.

Molecular target: insulin (Homo sapiens) (UniProt P01308)

Kd: 10 µM
Substance: insulin (from UniProt P01308)
